What is called Kd is the free concentration of one partner at which half of the binding sites on the other are occupied at equilibrium, for simple one-to-one binding. A higher Kd goes with weaker binding.

Where no end group is shown, it is not given here. The star is where a group is joined. FITC = O=C1OC2(c3ccc(O)cc3Oc3cc(O)ccc32)c2ccc(NC(=S)*)cc21

Experimental findings from article PMC2928020 (The Journal of Cell Biology, 2010) are described below.

This test concerns the target SNX27 PDZ domain, wild type (residues 39-131 of rat SNX27) (rat, UniProt Q8K4V4 39-131). Kind of test: fluorescence polarisation. In general terms: Polarisation of emitted light reports the rotation of a fluorescent probe.

B1: FITC-labeled peptide corresponding to the C-terminal six residues of the β2AR (TNDSLL) (peptide)
peptide: {FITC}-TNDSLL
Consider B1, for which the Kd was determined as 17 ± 1.2 µM.
